{"source": "patent US20220025056A1", "about": "(INNATE PHARMA, published 2022)", "key": {"ILT2 mutant 2": {"target": "T1, ILT2 mutant 2 (human, UniProt Q8NHL6 24-650)", "T1 construct": "transfected in HEK293T cells; also called M2", "T1 sequence (Q8NHL6 other isoform, or with tags, fused parts or gaps mutant)": "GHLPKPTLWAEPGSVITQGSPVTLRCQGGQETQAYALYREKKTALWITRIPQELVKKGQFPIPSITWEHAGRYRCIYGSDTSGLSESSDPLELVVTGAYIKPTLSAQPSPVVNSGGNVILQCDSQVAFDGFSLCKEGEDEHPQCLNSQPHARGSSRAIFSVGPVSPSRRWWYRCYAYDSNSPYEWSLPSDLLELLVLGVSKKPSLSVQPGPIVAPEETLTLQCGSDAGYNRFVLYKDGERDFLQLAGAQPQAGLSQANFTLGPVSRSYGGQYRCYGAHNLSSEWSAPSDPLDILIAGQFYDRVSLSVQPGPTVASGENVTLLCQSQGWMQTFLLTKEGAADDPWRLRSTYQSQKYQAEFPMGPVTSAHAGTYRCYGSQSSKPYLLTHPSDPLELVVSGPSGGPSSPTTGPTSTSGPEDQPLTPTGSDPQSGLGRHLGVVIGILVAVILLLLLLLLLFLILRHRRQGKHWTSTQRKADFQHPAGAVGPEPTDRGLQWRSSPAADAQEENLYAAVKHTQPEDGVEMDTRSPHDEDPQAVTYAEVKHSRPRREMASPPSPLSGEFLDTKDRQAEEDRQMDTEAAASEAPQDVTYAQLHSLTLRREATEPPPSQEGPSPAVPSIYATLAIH", "experiment": "flow cytometry, ILT2 point mutants"}, "[1]": {"target": "T2, ILT-2_6xHis recombinant protein (human, UniProt Q8NHL6 24-458)", "T2 construct": "monomers purified by SEC; also called recombinant 6xHIS tagged ILT2; recombinant human ILT2 proteins", "T2 sequence (Q8NHL6 other isoform, or with tags, fused parts or gaps limits assumed)": "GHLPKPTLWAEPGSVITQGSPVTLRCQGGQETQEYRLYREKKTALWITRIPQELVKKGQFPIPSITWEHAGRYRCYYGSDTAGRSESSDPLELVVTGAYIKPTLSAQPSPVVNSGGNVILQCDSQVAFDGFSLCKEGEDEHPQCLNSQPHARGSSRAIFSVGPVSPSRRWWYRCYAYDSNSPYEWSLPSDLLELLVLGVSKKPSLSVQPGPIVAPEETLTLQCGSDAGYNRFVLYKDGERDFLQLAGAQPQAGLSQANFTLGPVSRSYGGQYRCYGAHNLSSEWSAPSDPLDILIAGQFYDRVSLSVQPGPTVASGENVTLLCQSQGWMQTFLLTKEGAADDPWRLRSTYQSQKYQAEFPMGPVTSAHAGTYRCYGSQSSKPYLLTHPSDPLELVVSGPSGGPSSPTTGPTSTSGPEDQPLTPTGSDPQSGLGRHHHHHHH", "experiment": "SPR, antibody captured on Protein-A, soluble ILT2 analyte; 1:1 Binding", "experimental": "Measurements were performed on a Biacore T200 apparatus (Biacore GE Healthcare) at 25° C. In all Biacore experiments HBS-EP+(Biacore GE Healthcare) and NaOH 10 mM served as running buffer and regeneration buffer respectively. Sensorgrams were analyzed with Biacore T100 Evaluation software. Protein-A was purchased from (GE Healthcare). Human ILT2 recombinant proteins were cloned, produced and purified at Innate Pharma. Protein-A proteins were immobilized covalently to carboxyl groups in the dextran layer on a Sensor Chip CM5. The chip surface was activated with EDC/NHS (N-ethyl-N′-(3-dimethylaminopropyl) carbodiimidehydrochloride and N-hydroxysuccinimide (Biacore GE Healthcare)). Protein-A was diluted to 10 μg/ml in coupling buffer (10 mM acetate, pH 5.6) and injected until the appropriate immobilization level was reached (i.e. 600 RU). Deactivation of the remaining activated groups was performed using 100 mM ethanolamine pH 8 (Biacore GE Healthcare). […] For blank subtraction, cycles were performed again replacing ILT2 proteins with running buffer. The monovalent affinity analysis was conducted following a regular Capture-Kinetic protocol as recommended by the manufacturer (Biacore GE Healthcare kinetic wizard). Seven serial dilutions of human ILT2 proteins, ranging from 1.95 nM to 250 nM were sequentially injected over the captured antibodies and allowed to dissociate for 10 min before regeneration. The entire sensorgram sets were fitted using the 1:1 kinetic binding model or two state reaction model, as a function of the profile of the curves."}, "[2]": {"target": "T3, anchored ILT2 D2-D3-D4 domain protein (human, UniProt Q8NHL6 122-650)", "T3 construct": "on CHO cells; the entry includes leader remnant, V5 tag, and the ILT2 transmembrane and cytoplasmic parts", "T3 sequence (Q8NHL6 other isoform, or with tags, fused parts or gaps limits assumed)": "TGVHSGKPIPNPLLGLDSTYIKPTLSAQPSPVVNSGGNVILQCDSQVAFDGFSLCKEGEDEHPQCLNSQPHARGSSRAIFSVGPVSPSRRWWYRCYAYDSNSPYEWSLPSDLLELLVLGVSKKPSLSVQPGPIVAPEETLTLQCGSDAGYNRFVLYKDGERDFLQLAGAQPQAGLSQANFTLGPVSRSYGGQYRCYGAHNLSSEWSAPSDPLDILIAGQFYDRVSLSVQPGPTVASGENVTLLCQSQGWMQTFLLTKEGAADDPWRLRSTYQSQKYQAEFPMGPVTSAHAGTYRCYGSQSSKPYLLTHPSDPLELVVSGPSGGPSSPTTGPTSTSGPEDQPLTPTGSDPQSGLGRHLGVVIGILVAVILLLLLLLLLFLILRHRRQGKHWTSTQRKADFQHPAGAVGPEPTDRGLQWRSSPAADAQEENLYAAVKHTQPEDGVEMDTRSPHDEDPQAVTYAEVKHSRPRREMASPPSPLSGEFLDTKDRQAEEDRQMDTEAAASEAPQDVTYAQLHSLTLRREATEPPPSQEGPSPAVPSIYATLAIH", "experiment": "flow cytometry, CHO cells with anchored ILT2 domain proteins"}, "[3]": {"target": "T4, anchored ILT2 D2-D3 domain protein (human, UniProt Q8NHL6 122-321)", "T4 construct": "on CHO cells; the entry includes leader remnant, V5 tag and CD24 GPI anchor signal", "T4 sequence (Q8NHL6 other isoform, or with tags, fused parts or gaps limits assumed)": "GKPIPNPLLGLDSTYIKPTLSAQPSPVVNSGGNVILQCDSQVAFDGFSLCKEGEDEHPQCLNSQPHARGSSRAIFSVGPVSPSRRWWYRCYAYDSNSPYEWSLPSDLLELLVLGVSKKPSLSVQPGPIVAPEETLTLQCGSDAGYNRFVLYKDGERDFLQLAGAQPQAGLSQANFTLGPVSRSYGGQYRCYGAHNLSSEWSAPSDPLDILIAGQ", "experiment": "flow cytometry, CHO cells with anchored ILT2 domain proteins"}, "[4]": {"target": "T5, anchored ILT2 D3 domain protein (human)", "T5 construct": "on CHO cells; the entry includes leader remnant, V5 tag and CD24 GPI anchor signal", "T5 sequence (chain, as listed by the source limits assumed)": "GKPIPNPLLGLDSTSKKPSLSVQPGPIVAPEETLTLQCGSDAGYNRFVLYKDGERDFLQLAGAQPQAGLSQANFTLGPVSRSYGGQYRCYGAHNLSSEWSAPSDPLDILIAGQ", "experiment": "flow cytometry, CHO cells with anchored ILT2 domain proteins"}, "[5]": {"target": "T6, anchored ILT2 D4 domain protein (human, UniProt Q8NHL6 322-650)", "T6 construct": "on CHO cells; the entry includes leader remnant, V5 tag, and the ILT2 transmembrane and cytoplasmic parts", "T6 sequence (Q8NHL6 other isoform, or with tags, fused parts or gaps limits assumed)": "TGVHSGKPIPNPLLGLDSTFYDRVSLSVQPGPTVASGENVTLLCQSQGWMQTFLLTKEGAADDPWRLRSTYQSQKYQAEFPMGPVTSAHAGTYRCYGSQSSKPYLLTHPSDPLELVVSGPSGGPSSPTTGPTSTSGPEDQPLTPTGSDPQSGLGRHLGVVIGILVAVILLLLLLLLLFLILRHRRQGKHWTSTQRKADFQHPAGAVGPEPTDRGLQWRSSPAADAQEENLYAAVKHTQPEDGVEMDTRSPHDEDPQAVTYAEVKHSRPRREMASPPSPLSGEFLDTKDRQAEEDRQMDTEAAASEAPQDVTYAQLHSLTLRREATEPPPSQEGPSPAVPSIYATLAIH", "experiment": "flow cytometry, CHO cells with anchored ILT2 domain proteins"}, "[6]": {"target": "T7, anchored ILT2 D2 domain protein (human)", "T7 construct": "on CHO cells; the entry includes leader remnant, V5 tag and CD24 GPI anchor signal", "T7 sequence (chain, as listed by the source limits assumed)": "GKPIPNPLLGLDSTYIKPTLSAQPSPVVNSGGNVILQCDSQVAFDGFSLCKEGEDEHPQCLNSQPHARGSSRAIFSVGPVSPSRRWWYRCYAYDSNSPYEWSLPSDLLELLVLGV", "experiment": "flow cytometry, CHO cells with anchored ILT2 domain proteins"}, "[7]": {"target": "T8, anchored ILT2 D3-D4 domain protein (human, UniProt Q8NHL6 223-650)", "T8 construct": "on CHO cells; the entry includes leader remnant, V5 tag, and the ILT2 transmembrane and cytoplasmic parts", "T8 sequence (Q8NHL6 other isoform, or with tags, fused parts or gaps limits assumed)": "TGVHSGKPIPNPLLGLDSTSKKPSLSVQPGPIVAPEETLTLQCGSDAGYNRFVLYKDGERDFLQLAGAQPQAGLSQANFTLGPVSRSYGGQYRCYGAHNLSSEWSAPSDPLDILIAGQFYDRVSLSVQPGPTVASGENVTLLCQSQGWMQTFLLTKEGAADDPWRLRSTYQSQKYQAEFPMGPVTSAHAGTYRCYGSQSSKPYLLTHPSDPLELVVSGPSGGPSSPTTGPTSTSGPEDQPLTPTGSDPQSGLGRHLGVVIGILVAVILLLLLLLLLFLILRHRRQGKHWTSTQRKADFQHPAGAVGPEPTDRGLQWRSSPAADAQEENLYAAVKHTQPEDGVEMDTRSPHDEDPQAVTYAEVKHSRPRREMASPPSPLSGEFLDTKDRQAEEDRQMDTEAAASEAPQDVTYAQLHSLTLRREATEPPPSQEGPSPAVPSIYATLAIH", "experiment": "flow cytometry, CHO cells with anchored ILT2 domain proteins"}, "[8]": {"target": "T9, biotinylated BirA-tagged ILT2 protein tetramerised on APC-conjugated streptavidin (human, UniProt Q8NHL6 24-458, limits assumed, 1 biotin molecule per ILT2 protein (BirA tag))", "T9 construct": "ratio 1 streptavidin per 4 ILT2 protein; streptavidin-APC not written as a chain; also called ILT2-SA tetramers; recombinant biotinylated ILT2", "T9 sequence (Q8NHL6 24-458 limits assumed)": "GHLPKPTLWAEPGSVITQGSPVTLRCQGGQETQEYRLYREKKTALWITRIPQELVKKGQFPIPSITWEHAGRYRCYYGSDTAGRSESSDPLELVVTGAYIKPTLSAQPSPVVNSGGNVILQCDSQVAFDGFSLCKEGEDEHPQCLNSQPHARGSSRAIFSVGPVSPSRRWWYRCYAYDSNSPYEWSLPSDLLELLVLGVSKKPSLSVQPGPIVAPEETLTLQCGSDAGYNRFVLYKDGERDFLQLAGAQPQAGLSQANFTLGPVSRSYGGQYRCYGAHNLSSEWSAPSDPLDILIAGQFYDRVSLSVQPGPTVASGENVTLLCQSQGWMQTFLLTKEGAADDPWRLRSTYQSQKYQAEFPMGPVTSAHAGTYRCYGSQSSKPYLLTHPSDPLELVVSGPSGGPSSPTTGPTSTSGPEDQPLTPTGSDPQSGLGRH", "experiment": "flow cytometry blocking assay: ILT2-streptavidin-APC complexes pre-incubated with antibody, then added to WIL2-NS cells expressing HLA-A2; blocked ligand HLA-A2"}, "[9]": {"target": "T10, human ILT6 (LILRA3) on CHO cells (human, UniProt Q8N6C8 24-434)", "T10 construct": "also called CHO ILT6 cell line; human ILT-6 polypeptide", "T10 sequence (Q8N6C8 other isoform, or with tags, fused parts or gaps)": "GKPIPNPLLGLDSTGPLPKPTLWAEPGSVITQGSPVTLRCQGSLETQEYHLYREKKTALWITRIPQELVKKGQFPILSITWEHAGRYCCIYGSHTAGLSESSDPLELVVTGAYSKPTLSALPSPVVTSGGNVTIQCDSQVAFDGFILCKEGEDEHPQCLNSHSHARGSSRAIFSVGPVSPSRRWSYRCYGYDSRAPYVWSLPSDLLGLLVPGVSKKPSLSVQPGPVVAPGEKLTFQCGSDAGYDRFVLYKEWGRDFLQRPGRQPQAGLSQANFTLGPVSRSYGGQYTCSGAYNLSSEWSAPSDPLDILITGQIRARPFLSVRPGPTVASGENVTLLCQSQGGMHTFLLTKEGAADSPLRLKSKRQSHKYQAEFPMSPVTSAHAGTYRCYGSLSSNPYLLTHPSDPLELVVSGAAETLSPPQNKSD", "experiment": "flow cytometry, CHO transfectants"}}}
{"binder": "48F12 (antibody, human IgG1, V domains shown) VH: QVQLKESGPGLVAPSQSLSITCTVSGFSLTSYGVSWVRQPPGKGLEWLGIIWGDGSTNYHSALVSRLSISKDNSKSQVFLKLNSLQTDDTATYYCAKPNWDYYAMDYWGQGTSVTVSS VL: DIQMTQTTSSLSASLGDRVTISCRASQDISNYLNWYQQKVDGTVKLLISYTSRLHSGVPSRFSGSGSGTDYSLTISNLEQEDIATYFCQQGITLPLTFGAGTKLELK", "values": [{"measurement": "binding result", "setting": "ILT2 mutant 2", "value": "no binding"}, {"measurement": "Kd", "setting": "[1]", "value": 0.2, "unit": "nM"}, {"measurement": "koff", "setting": "[1]", "value": 0.0001, "unit": "s⁻¹"}, {"measurement": "kon", "setting": "[1]", "value": 500000, "unit": "M⁻¹ s⁻¹"}, {"measurement": "binding result", "setting": "[2]", "value": "no binding"}, {"measurement": "binding result", "setting": "[3]", "value": "no binding"}, {"measurement": "binding result", "setting": "[4]", "value": "no binding"}, {"measurement": "binding result", "setting": "[5]", "value": "no binding"}, {"measurement": "binding result", "setting": "[6]", "value": "no binding"}, {"measurement": "binding result", "setting": "[7]", "value": "no binding"}, {"measurement": "IC50 (read off the curve)", "setting": "[8]", "value": "~0.1", "unit": "µg/mL"}, {"measurement": "binding result", "setting": "[9]", "value": "no binding"}]}
